This note sets out measurements from US8357523B2, “Beta-glucosidase variant enzymes and related polynucleotides” (Codexis, Inc., priority 2009, dated 2013).

Changes are numbered by the printed parent chain.

The chains are these.
B1: 7 (protein)
chain: STAIAQEGAAPAAILHPEKWPRPATQRLIDPAVEKRVDALLKQLSVEEKVGQVIQGDIGTITPEDLRKYPLGSILAGGNSGPNGDDRAPPKEWLDLADAFYRVSLEKRPGHTPIPVLFGIDAVHGHGNIGSATIFPHNIALGATHDPELLRRIGEVTAVEMAATGIDWTFAPALSVVRDDRWGRTYEGFSEDPEIVAAYSAAIVEGVQGKYGSKDFMAPGRIVASAKHFLADGGTDQGRDQGDARISEDELIRIHNAGYPPAIDAGVLTVMASFSSWQGIKHHGHKQLLTDVLKGQMGFNGFIVGDWNAHDQVPGCTKFNCPTSLIAGLDMYMAADSWKQLYENTLAQVKDGTIPMARLDDAVRRILRVKVLAGLFEKPAPKDRPGLPGLETLGSPEHRAVGREAVRKSLVLLKNDKGTLPLSPKARVLVAGDGADNIGKQSGGWTISWQGTGNRNDEFPGATSILGGIRDAVADAGGSVEFDVAGQYKTKPDVAIVVFGEEPYAEFQGDVETLEYQPDQKQDLALLKKLKDQGIPVVAVFLSGRPMWVNPELNASDAFVAAWLPGTEGGGVADVLFTDKAGKVQHDFAGKLSYSWPRTAAQTTVNRGDADYNPLFAYGYGLTYKDKSKVGTLPEESGVPAEARQNAGIYFRAGALRLPGRFL
B2: 28 (protein)
chain: B1 chain with Y211W
B3: 11 (protein)
chain: B1 chain with V159L, Y211F
B4: 21 (protein)
chain: B1 chain with V159Q, Y211F
B5: 29 (protein)
chain: B1 chain with A201P, Y211F
B6: 17 (protein)
chain: B1 chain with Y211F, P219M
B7: 33 (protein)
chain: B1 chain with V159R, Y211F
B8: 8 (protein)
chain: B1 chain with A162T, Y211F
B9: 20 (protein)
chain: B1 chain with A198N, Y211F
B10: 9 (protein)
chain: B1 chain with A201G, Y211F
B11: 24 (protein)
chain: B1 chain with Y211F, P219V
B12: 12 (protein)
chain: B1 chain with A202N, Y211F
B13: 25 (protein)
chain: B1 chain with R151P, Y211F
B14: 14 (protein)
chain: B1 chain with D146S, Y211F
B15: 18 (protein)
chain: B1 chain with V159A, Y211F
B16: 15 (protein)
chain: B1 chain with R151P, Y211F
B17: 22 (protein)
chain: B1 chain with V159I, Y211F
B18: 31 (protein)
chain: B1 chain with A198Q, Y211F
B19: 10 (protein)
chain: B1 chain with A198M, Y211F
B20: 13 (protein)
chain: B1 chain with A198C, Y211F
B21: 16 (protein)
chain: B1 chain with A198S, Y211F
B22: 26 (protein)
chain: B1 chain with A202F, Y211F
B23: 30 (protein)
chain: B1 chain with E155D, Y211F
B24: 19 (protein)
chain: B1 chain with A198L, Y211F
B25: 32 (protein)
chain: B1 chain with Y211F, I222G
B26: 27 (protein)
chain: B1 chain with A202Y, Y211F
B27: 23 (protein)
chain: B1 chain with A202P, Y211F

The nature of the series: High throughput cellobiose assay: fold improvement in cellobiase activity of CelA variants over a control enzyme (Tables 2A-2D, 3, 5, 6, 7). The series is classed as biochemical. The following applies: 3.3 g/l cellobiose, 50° C. and pH 6.5; compared to native CelA (SEQ ID NO: 4). The method, then: β-glucosidase activity was also determined using a cellobiose assay, which used cellobiose as substrate. In a total volume of 100 μL, 25 μL clear media supernatant containing CelA enzyme was added to 10 g/L cellobiose (Fluka Cat. No. 22150, Sigma-Aldrich, Inc., St. Louis, Mo.) in 100 mM sodium phosphate buffer (pH 6-7) or sodium acetate buffer (pH 5-5.5). The reaction was incubated at 45-70° C. for an appropriate time (25 minutes to overnight depending on the enzyme concentration) while shaking. Glucose production was determined using an enzymatic glucose assay (K-GLUC, Megazyme, Ireland). 10 μl of each reaction was added to 190 μl GOPOD reagent (supplied as part of the K-GLUC assay kit). The reaction was incubated at 45° C. for 20 minutes and the absorbance of the solution was measured at 510 nm. The GOPOD reagent contains 50 mM Potassium phosphate buffer pH7.4, 0.011M p-hydroxybenzoic acid, 0.008% w/v sodium azide, glucose oxidase (>12,000 U/L), peroxidase (>650 U/L) and 80 mg/L 4-aminoantipyrine. The glucose oxidase enzyme in the reagent reacts with any glucose present in the sample and produces hydrogen peroxide which then reacts with the 4-aminoantipyrine to produce a quinoneimine dye in quantities proportionate with the amount of glucose present and can be measured spectrophotometrically at 510 nm. Detectable β-glucosidase activity was observed under high throughput screening conditions (i.e., pH 7, 50° C.).
Plasmid libraries containing variant CelA genes were transformed into B. megaterium and plated on Luria-Bertani (LB) agar plates containing 3 μg/mL tetracycline with a DM3 regeneration media overlay (400 mM sodium succinate dibasic, pH 7.3, 0.5% casamino acids, 0.5% yeast extract, 0.4% K2HPO4, 0.2% KH2PO4, 20 mM MgCl2, 0.5% glucose and 0.2% BSA). After incubation for at least 18 hours at 30° C., colonies were picked using a Q-bot® robotic colony picker (Genetix USA, Inc., Beaverton, Oreg.) into shallow, 96-well well microtiter plates containing 180 μL, LB and 10 μg/mL tetracycline. Cells were grown overnight at 37° C. with shaking at 200 rpm and 85% humidity. 10 μL of this culture was then transferred into 96-well microtiter plates (deep well) containing 390 μL A5-glucose-xylose medium and 10 μg/mL tetracycline as described in example 2. The plates were then incubated at 37° C. with shaking at 250 rpm and 85% humidity overnight (˜18-24 hours). The deep plates were centrifuged at 4000 rpm for 15 minutes and the clear media supernatant containing the secreted CelA enzyme was used for the high throughput pNPG or cellobiose assay of Example 5.
The CelA libraries were screened in high throughput using the cellobiose assay of Example 5 (Substrate: cellobiose; pH: 5-7; temperature: 45-72° C.; time: 2-24 hrs) for the identification of improved variants.
In shallow, 96-well microtiter plates 25 μL of media supernatant was added to 75 μL of […] cellobiose in 150 mM sodium acetate buffer pH 5-5.5 or 150 mM sodium phosphate buffer pH6-7. After sealing with aluminum/polypropylene laminate heat seal tape (Velocity 11 (Menlo Park, Calif.), Cat#06643-001), the plates were shaken at 45-65° C. for up to 24 hrs. The plates were centrifuged for 5 minutes at 4000 rpm. In shallow well clear microtiter plates, 10 μL of the reaction mixture was added to 190 μL of GOPOD reagent (as in example 5B) per well. The solutions were incubated at 45° C. for 1 hour and absorbance was measured at 510 nm for the identification of active CelA variants.
Improved CelA variants were identified from the high throughput screening of various CelA variant libraries as described in Example 7, using the cellobiose assay of Example 5 using 3.3 g/l cellobiose at temperatures from 50°-55° C. at a pH in the range of 5.3-6.5. Tables 2A, 2B, 2C, and 2D and Table 3 depict the improvement in activities of CelA variants encompassed by the invention. The assay conditions are indicated in each table. […]
Regarding B1, the “Fold improvement over wildtype CelA” value is given as “++ (++ = 2.1 to 2.6 fold improvement over native CelA (SEQ ID NO: 4))”.

B2: the “Fold improvement over wildtype CelA” value is “++ (++ = 2.1 to 2.6 fold improvement over native CelA (SEQ ID NO: 4))”.

As for B3, the “Fold improvement over wildtype CelA” value is listed as “+ (+ = 1.1 to 2.0 fold improvement over native CelA (SEQ ID NO: 4))”.

For B4, the “Fold improvement over wildtype CelA” value is “+ (+ = 1.1 to 2.0 fold improvement over native CelA (SEQ ID NO: 4))”.

Take B5: the “Fold improvement over wildtype CelA” value is on record as “++ (++ = 2.1 to 2.6 fold improvement over native CelA (SEQ ID NO: 4))”.

Turning to B6, the “Fold improvement over wildtype CelA” value is “+ (+ = 1.1 to 2.0 fold improvement over native CelA (SEQ ID NO: 4))”.

As to B7, the “Fold improvement over wildtype CelA” value is listed as “+ (+ = 1.1 to 2.0 fold improvement over native CelA (SEQ ID NO: 4))”.

Consider B8, for which the “Fold improvement over wildtype CelA” value is “+ (+ = 1.1 to 2.0 fold improvement over native CelA (SEQ ID NO: 4))”.

As for B9, the “Fold improvement over wildtype CelA” value is “+ (+ = 1.1 to 2.0 fold improvement over native CelA (SEQ ID NO: 4))”.

With B10, the “Fold improvement over wildtype CelA” value is reported as “+ (+ = 1.1 to 2.0 fold improvement over native CelA (SEQ ID NO: 4))”.

As for B11, the “Fold improvement over wildtype CelA” value was “+ (+ = 1.1 to 2.0 fold improvement over native CelA (SEQ ID NO: 4))”.

Take B12: the “Fold improvement over wildtype CelA” value is given as “+ (+ = 1.1 to 2.0 fold improvement over native CelA (SEQ ID NO: 4))”.

For the molecule B13, the “Fold improvement over wildtype CelA” value is “+ (+ = 1.1 to 2.0 fold improvement over native CelA (SEQ ID NO: 4))”.

For B14, the “Fold improvement over wildtype CelA” value is on record as “++ (++ = 2.1 to 2.6 fold improvement over native CelA (SEQ ID NO: 4))”.

B15: the “Fold improvement over wildtype CelA” value is on record as “+ (+ = 1.1 to 2.0 fold improvement over native CelA (SEQ ID NO: 4))”.

With B16, the “Fold improvement over wildtype CelA” value is recorded as “+ (+ = 1.1 to 2.0 fold improvement over native CelA (SEQ ID NO: 4))”.

Consider B17, for which the “Fold improvement over wildtype CelA” value is “+ (+ = 1.1 to 2.0 fold improvement over native CelA (SEQ ID NO: 4))”.

In the case of B18, the “Fold improvement over wildtype CelA” value is reported as “+ (+ = 1.1 to 2.0 fold improvement over native CelA (SEQ ID NO: 4))”.

Regarding B19, the “Fold improvement over wildtype CelA” value is on record as “+ (+ = 1.1 to 2.0 fold improvement over native CelA (SEQ ID NO: 4))”.

For B20, the “Fold improvement over wildtype CelA” value is listed as “+ (+ = 1.1 to 2.0 fold improvement over native CelA (SEQ ID NO: 4))”.

B21: the “Fold improvement over wildtype CelA” value is “+ (+ = 1.1 to 2.0 fold improvement over native CelA (SEQ ID NO: 4))”.

Take B22: the “Fold improvement over wildtype CelA” value was “+ (+ = 1.1 to 2.0 fold improvement over native CelA (SEQ ID NO: 4))”.

Consider B23, for which the “Fold improvement over wildtype CelA” value is “+ (+ = 1.1 to 2.0 fold improvement over native CelA (SEQ ID NO: 4))”.

On to B24, for which the “Fold improvement over wildtype CelA” value was “+ (+ = 1.1 to 2.0 fold improvement over native CelA (SEQ ID NO: 4))”.

With B25, the “Fold improvement over wildtype CelA” value is reported as “+ (+ = 1.1 to 2.0 fold improvement over native CelA (SEQ ID NO: 4))”.

For B26, the “Fold improvement over wildtype CelA” value is “+ (+ = 1.1 to 2.0 fold improvement over native CelA (SEQ ID NO: 4))”.

As for B27, the “Fold improvement over wildtype CelA” value was “+ (+ = 1.1 to 2.0 fold improvement over native CelA (SEQ ID NO: 4))”.
